Data as given in patent US20110212105A1.

Molecular target: A2MR receptor on Vero cells (monkey (Vero cell line))
Experiment: cell-based or functional assay

RAPR13 (recombinant human LRPAP1 / receptor-associated protein with an N-terminal tag of 6 histidines and a thrombin cleavage site), sequence (P30533 other isoform, or with tags, fused parts or gaps limits assumed): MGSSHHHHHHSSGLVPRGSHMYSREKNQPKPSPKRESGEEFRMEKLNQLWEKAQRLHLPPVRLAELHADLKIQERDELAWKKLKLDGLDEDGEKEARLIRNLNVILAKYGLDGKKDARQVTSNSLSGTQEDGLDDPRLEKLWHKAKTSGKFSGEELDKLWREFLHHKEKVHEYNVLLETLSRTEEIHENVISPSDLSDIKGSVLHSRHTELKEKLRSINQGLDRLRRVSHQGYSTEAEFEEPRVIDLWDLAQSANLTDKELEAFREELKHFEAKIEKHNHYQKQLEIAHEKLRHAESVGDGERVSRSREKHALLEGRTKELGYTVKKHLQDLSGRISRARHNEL

“RAPR13 (recombinant human LRPAP1 / receptor-associated protein with an N-terminal tag of 6 histidines and a thrombin cleavage site) (from UniProt P30533 35-357) (ligand)” was tested, and the inhibition of the infection of Vero cells by DV1 (West Pac 74), lytic plaque assay, RAPR13 at 100 µg/mL was 65%, the inhibition of the infection of Vero cells by DV2 (S16803), lytic plaque assay, RAPR13 at 100 µg/mL was 76% and the inhibition of the infection of Vero cells by DV3 (CH53489), lytic plaque assay, RAPR13 at 100 µg/mL was 60%. It also gave an inhibition of the infection of Vero cells by DV4 (TVP360), lytic plaque assay, RAPR13 at 100 µg/mL of 75%.
